Paper PMC4500542 (Cell reports, 2015)

Target: the molecule itself
Test: SEC-MALS

B1: MBP-EBOV NP 1-367 (domain or fragment)
chain: MDSRPQKIWMAPSLTESDMDYHKILTAGLSVQQGIVRQRVIPVYQVNNLEEICQLIIQAFEAGVDFQESADSFLLMLCLHHAYQGDYKLFLESGAVKYLEGHGFRFEVKKRDGVKRLEELLPAVSSGKNIKRTLAAMPEEETTEANAGQFLSFASLFLPKLVVGEKACLEKVQRQIQVHAEQGLIQYPTAWQSVGHMMVIFRLMRTNFLIKFLLIHQGMHMVAGHDANDAVISNSVAQARFSGLLIVKTVLDHILQKTERGVRLHPLARTAKVKNEVNSFKAALSSLAKHGEYAPFARLLNLSGVNNLEHGLFPQLSAIALGVATAHGSTLAGVNVGEQYQQLREAATEAEKQLQQYAESRELDHLG
binding result: binds
